Test results published in patent publication US20230227526A1 (published 2023).

Target: T1, COL6A3 (peptide named COL6A3-642) peptide on HLA-A*02:01 (human)
T1 peptide: FLLDGSANV
Test: multimer staining

binding result: recognises
B1: COL6A3-642 C4 TCR (TRAV1-2*01F-TRBV9*01F) (TCR, V domains shown)
Valpha: GQNIDQPTEMTATEGAIVQINCTYQTSGFNGLFWYQQHAGEAPTFLSYNVLDGLEEKGRFSSFLSRSKGYSYLLLKELQMKDSASYLCAVRADRGSTLGRLYFGRGTQLTVWP
Vbeta: DSGVTQTPKHLITATGQRVTLRCSPRSGDLSVYWYQQSLDQGLQFLIQYYNGEERAKGNILERFSAQQFPDLHSELNLSSLELGDSALYFCASSVDGGASGEQFFGPGTRLTVL
